Experimental data reported in US7667100B2, “Nucleic acid compositions conferring herbicide resistance” (Dow AgroSciences LLC, priority 2002, dated 2010).

Tests used:
[1] = tested on: Nicotiana benthamiana; assay: Cross-resistance testing against six auxin compounds (greenhouse); format: in vivo
Text: Six compounds, representing five classes of auxin chemistry, were selected for testing the extent of auxinic tolerance of five hit sequences (129965 (SEQ ID NO:10), 130213 (SEQ ID NO: 14), 130294 (SEQ ID NO:360), 130994 (SEQ ID NO:361), and 129870 (SEQ ID NO:359)). The compounds included the following: • 1) quinclorac (BASF Corp., Research Triangle, N.C.) • 2) (2,4-dichlorophenoxy) acetic acid (Dow AgroSciences, Indianapolis, Ind.) • 3) dicamba (Monsanto, St. Louis, Mo.) • 4) benazolin (AgrEvo USA Company, Wilmington, Del.) • 5) picloram (Dow AgroSciences, Indianapolis, Ind.) • 6) 4-amino-3,6-dichloropyridine-2-carboxylic acid (Dow AgroSciences, Indianapolis, Ind.) Compound #6 served as a positive control, as these five sequences were identified for their herbicide tolerant function using this auxin (see Example 9). Compound #1 represents the quinoline carboxylic acid chemical family, #2 is in the phenoxy carboxylic acid class, #3 is benzoic acid chemistry, #4 is unique to any currently defined class, and #5 is in the same family as the positive control, pyridine carboxylic acids.
The protocol was essentially the same as that described in Example 9 for greenhouse evaluations. However, an individual experiment consisted of 200 test plants plus 35 GFP and 35 bar negative control plants inoculated per clone. […] Two doses per auxin were tested, with as many as 12 well-infected test plants and 2 of each of the negative controls per dose.
The six auxin solutions were prepared by dissolving solid compound in General Purpose Solvent (GPS: 97%DMSO: 3% acetone) to achieve the following spray rates (g ae/ha) when using the spray applicator and parameters outlined in Example 9: Compound #1) 200; 2) 42; 3) 64; 4) 200; 5) 10; 6) 10. From each of these solutions, a portion was diluted with an equal volume of GPS, resulting in 1× (“high dose”) and ½× (“low dose”) concentrations for spraying. Before spray application, each auxin solution was mixed with an equal volume of diluent containing surfactants for effective penetration. The diluent was prepared as follows: 420 mL GPS, 460 mL DI water, 120 mL isopropyl alcohol, 10.167 mL Agri-Dex (Helena Chemical Co., Memphis, Tenn.), and 0.167 mL Triton X-155 (Sigma Chemical Co., St. Louis, Mo.). In addition to the 200 and 100 g ae/ha rates tested for Compound #4 (benazolin), a concentration of 250 g ae/ha was also formulated as described above and tested.
Plants were sprayed and evaluated as described in Example 9. FIG. 7 summarizes the sequences tested and the highest dose of the compounds against which tolerance was observed. […] Results are reported in FIG. 7 for each of the trials with each construct.
The positive control (Compound #6) was formulated differently in this set of evaluations from that described in Example 9, for consistency in the solvent/surfactant background from which to compare the activity of the individual sequences against each auxin. Thus, the spray rate used for evaluation was lower than previous experiments, 5 vs. 13 g ae/ha. The need to lower the dose with this formulation to prevent total chlorosis and/or necrosis was likely due to the addition of DMSO, Agri-Dex, and Triton X-155 which were not used in Example 9.

[2] = tested on: Nicotiana benthamiana; assay: Evaluation of auxin tolerance in greenhouse plants inoculated with clone transcript and sprayed with herbicide; format: in vivo; conditions: greenhouse; 30% or more of test population tolerant by 14 dat
Experimental: All primary hit sequences were evaluated for tolerance in larger plants, maintained under greenhouse conditions as described below.
Plant Growth and Maintenance. Nb seeds were sown in 6.5 cm pots filled with Redi-earth medium (The Scotts Company, Marysville, Ohio) pre-wetted by injection of Hoagland's fertilizer solution [all from the Scotts Company: 147 kg Peters Excel 15-15-15 Cal-Mag, 68 kg Peters Excel 15-0-0 Cal-Lite (15% Ca), and 45 kg Peters Excel 10-0-0 MagNitrate (10% Mg) in hot tap water to 596 L total volume] into irrigation water at a ratio of 200:1, using an injection system (H. E. Anderson, Muskogee Okla,). Seededpots were placed in the greenhouse for 1 day, transferred to a 27° C. germination chamber (Carolina Greenhouses, Kinston, N.C.) for 2 days, and then returned to the greenhouse. Shade curtains (33% transmittance) were used in the greenhouse to reduce solar intensity. To ensure 16 hour day length and supplement solar radiation on overcast days, artificial lighting consisting of a 1:1 mixture of metal halide and high pressure Sylvania sodium lamps was used, delivering approximately 220 μmol/m^2/s. Evaporative cooling and steam heat were used to maintain a daytime set point of 27° C. and a nighttime temperature of 22° C. At approximately 7 days post sowing (dps), seedlings were thinned to one seedling per pot and at 17 to 21 dps, the pots were spaced farther apart to accommodate plant growth. Plants were watered with Hoagland's solution as required. Following inoculation, waste irrigation water was collected and treated with 0.5% sodium hypochlorite for 10 minutes to neutralize any viral contamination before discharging into the municipal sewer.
Plant Inoculation. For each clone, 50 test plants as well as 10 GFP and bar (Thompson et al., EMBO J. 6:2519 [19870]) negative control plants were inoculated as follows: 2.0 mL of inoculum per clone were prepared by combining equal volumes of NCAP transcript and FES buffer [0.1 M glycine, 0.06 M K2HPO4, 1% sodium pyrophosphate, 1% diatomaceous earth (Sigma Chemical Company, St. Louis, Mo.), and either 1% silicon carbide (Aldrich Chemical Company, Milwaukee, Wis.), or 1% Bentonite (Sigma Chemical Company, St. Louis, Mo.)]. The inoculum was applied to each plant at 17 days post sowing by pipetting onto the upper surface of leaves 3 and 4 (˜20 μL per leaf). The inoculum was then spread across each leaf surface using a 3″ cotton tipped applicator (Calapro Swab, Fisher Scientific, Pittsburgh, Pa.) and a gloved finger to support the leaf. Following inoculation the plants were misted with deionized water.
Infection Scoring. At 8 days post inoculation (dpi), the plants were visually examined and a numerical score was assigned to each plant to indicate the extent of viral infection symptoms: 0=no infection, 1=possible infection, 2=infection symptoms limited to leaves <50-75% fully expanded, 3=typical systemic infection, 4=atypically severe infection, often accompanied by moderate to severe wilting and/or necrosis. Plants receiving an infection rating of 0, 1, or 4 were discarded.
Herbicide spraying. At 9 dpi, the well infected plants (infection score of 3, sometimes 2) were divided into 3 treatment groups. Group 1, to be sprayed with solvent only, contained 4 plants per test clone (2 plants per negative control) and Groups 2 and 3, to be treated with 13 or 40 g ae/ha, respectively, each consisted of 12 test plants per clone and 2 plants per negative control. […]

B1: 129870: Poppy cDNA clone; auxin tolerance hit sequence (nucleic acid)
DNA: TTAATTAAGTCGACGAATTCAAATTAGGTCTAAAGATGGCGTCTTTAGCTCAACAATTCTCAGGATTAAGATGCCCACCACTTTCTTCTTCTCATCTAACAAAACCCTTTTCTTCAAAACCCCAGAAAACCACCTTTTCACCTATAGTTTCAGCAGCTGTCATTTCTAATGCACAAACTAAAGAAAGAAGTAGACTTAAAGAAATCTTCGAAGATGCTTATGAAAGATGTAGAACTACTCCAATGCAAGGTGTTGGTTTTACTGTTGATGATTTTCATGCTGCTCTTGAAAAGTATGATTACAATTCTGAGATTGGTACCAGGGTTAAAGGAACTGTGTTCTGTACAGACAACAACGGAGCATTAGTTGACATCACGGCGAAATCTTCAGCCTATTTACCAATCCAAGAGGCATGTATTCACAAAATAAAGCATGTAGAAGAAGCAGGAATAGTTGCAGGCCTACGTGAAGAGTTTGTGATTATTGGAGAGAACCAAGCTGATGATAGCTTGATCTTGAGTTTGCGTTCAATCCAATTTGACCTCGCATGGGAACGGTGTAGACAACTTCAGGCAGAGGATGTCGTCCTCAAGGGTAAGGTTGTTGGTGGAAACAAAGGCGGTGTGGTGGCAATTGTCGAAGGCCTTCGTGGTTTTATTCCATTCTCACAAATATCTTCAAAATCAACCGCGGAAGATCTCATTGATAAGGAGCTTCCTCTGAAATTTGTGGAAGTTGATGAGGAGCAGTCTAGACTTGTCCTCAGTAATCGCAAGGCCATGGCAGACAGCCAGGCACAGCTTGGTATTGGATCAGTTGTCACTGGAACAGTACAGAGTCTTAAGCCATATGGCGCTTTCATCGACATTGGTGGAATCAATGGTCTTCTTCATGTTAGTCAAATTAGTCATGATCGTGTCTCGGATATTGCAACAGTTCTTCAACCCGGCGACACTCTAAAGGTGATGATATTGAGCCACGACCGTGAGAGAGGCCGAGTCAGTCTATCCACCAAAAAGCTAGAGCCTACTCCAGGAGATATGATCCGTAACCCCAAGCTTGTTTTCGAGAAGGCTGAAGAAATGGCTCAGACATTCAGGCAGAGAATAGCTCAAGCAGAAGCTATGGCCCGTGCGGACATGCTGAGATTCCAACCCGAGAGTGGATTGACTCTAAGCTCAGACGGCATCTTAGGTCCCCTGACGCCAGACTTGCCTGCTGAAGGTCTAGATTTGAGCGACATTCCTGCAGCTGATGATGCATAGAAACCAATAAATATGAATTAAATCTGTCTTGACGTTTCTTCTCATCACCATTTTTAGGCTATGTAAGATGGGTCTATAGGTTGTTCAAAGTGTTGACTTGTGTATTTATCTTGATAGTTCAAAGTGTACTTCTTTAAGCGATAATCATTGAAAAGAAAAAATGGAGAAGGTAAAAGATAAAAATATCCAAAAAAAAAAAAAAAAAAAAAAAA
modifications: Poppy
tolerance to picloram (Compound #5) ([1]; 10 g ae/ha and 1/2x): demonstrated tolerance to each of the three compounds using the 35% injury threshold
tolerance to positive control 4-amino-3,6-dichloropyridine-2-carboxylic acid (Compound #6) ([1]; 10 g ae/ha and 1/2x (5 g ae/ha)): tolerance consistently occurred at the lower threshold (25% injury or less)
tolerance to dicamba (Compound #3) ([1]; 64 g ae/ha and 1/2x): demonstrated tolerance to each of the three compounds using the 35% injury threshold
tolerance to quinclorac (Compound #1) ([1]; 200 g ae/ha and 1/2x): demonstrated tolerance to each of the three compounds using the 35% injury threshold
extent of cross-resistance to the six auxin compounds ([1]; two trials, two doses per auxin, thresholds 25% or 35% injury or less): tolerance was observed against four compounds
reproducibility of auxin tolerance from Trial #1 to Trial #2 [2]: reproducible auxin tolerance
